Molecular target: ADRB2-luc234R233 (β2 adrenergic receptor fused at its C terminus to permuted firefly luciferase with R at the X position of the TEV cleavage site) (firefly) (UniProt P07550)
Assay: cell-based or functional assay

Sequence of Human β arrestin 2-TEV fusion (tobacco etch virus protease A fused to the C terminus of β arrestin 2) (P32121 1-409, tags or fused parts left off): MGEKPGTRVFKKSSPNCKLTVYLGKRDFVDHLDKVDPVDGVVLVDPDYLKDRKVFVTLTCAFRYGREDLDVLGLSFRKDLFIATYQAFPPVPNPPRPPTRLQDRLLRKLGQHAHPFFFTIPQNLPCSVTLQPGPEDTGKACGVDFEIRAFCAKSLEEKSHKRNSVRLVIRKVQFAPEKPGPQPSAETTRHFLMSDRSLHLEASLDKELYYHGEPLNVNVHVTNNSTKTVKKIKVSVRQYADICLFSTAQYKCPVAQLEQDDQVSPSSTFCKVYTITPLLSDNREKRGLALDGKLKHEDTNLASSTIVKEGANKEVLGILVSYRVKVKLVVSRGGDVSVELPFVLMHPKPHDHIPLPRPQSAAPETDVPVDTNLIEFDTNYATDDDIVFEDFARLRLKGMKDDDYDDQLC

Human β arrestin 2-TEV fusion (tobacco etch virus protease A fused to the C terminus of β arrestin 2) (from UniProt P32121 1-409; P04517 2040-2279)
> 3 fold: relative luminescence (reconstituted permuted luciferase) in co-transfected CHO-K1 cells, with or without 10 µM isoproterenol, 2 hours | relative luminescence in co-transfected CHO-K1 cells, with or without 10 µM isoproterenol, 2 hours | relative luminescence units in cotransfected CHO-K1 cells, with or without 10 µM ADRB2 agonist, 2 hours

Source: patent US20140162289A1
